From patent US7109167
No end group written: not given here. Oregon Green (5-isomer) = Oregon Green fluorescent label, 5-isomer

What was measured:
[1] = target: T1, NP-1/Fc (Neuropilin-1/Fc, R&D Systems); assay: competition of 125I-VEGF165 binding to plate-coated NP-1/Fc
T1 construct: Bought reagent; also called Npn-1
Experimental: An assay buffer consisting of Hank's Balanced Salt Solution (HBSS), 25 mM HEPES, and 0.1% BSA, pH 7.4 was used, and for all experiments, Assay volume per well was 75 µl. Plates (Nunc MaxiSorp white opaque Microtiter plate [C-bottom, 437796]) were coated by incubating the wells with 75 µl of a solution containing 3 µlg/mL NP-1/Fc in D-PBS/0.1% NaAzide overnight at 4° C. after covering with sealing tape (Dynex, VWR Cat. No. 62402-931). The next day all wells, even control wells lacking NP-1/Fc, were blocked 2 hrs with blocking buffer (1% BSA in D-PBS with 0.05% v/v Tween-20) then washed 4× with PBST (D-PBS/0.05% v/v Tween-20) before starting the assay. All points were derived from triplicate wells, and for each set of replicates in NP-1/Fc-coated wells, a companion set in the absence of the receptor was included. […] After addition of the appropriate solutions, microtiter plates were incubated at 4° C. for 2 hours. Following the incubation, plates were hand-washed 5 times with D-PBS containing 0.05% Tween-20 and 0.1% BSA. The plates were blotted dry and 25 µl deionized water and 100 µl scintillation fluid (Optiphase SuperMix, Wallac) were added to each well.

[2] = target: T1, NP-1/Fc (Neuropilin-1/Fc, R&D Systems); assay: fluorescence polarization competition against labeled BRU-326 on NP-1/Fc
[3] = target: T1, NP-1/Fc (Neuropilin-1/Fc, R&D Systems); assay: fluorescence polarization, labeled ligand (5-20 nM) titrated with NP-1/Fc, 37 °C
Experimental: FP values (mP) for each substrate was measured by titrating the ligand (5–20 nM) with receptor protein using a Jolley Research and Consulting FPM-1 fluorescence Polarization analyzer. In each of these experiments the observed polarization values were plotted against receptor concentration. The mP values for 100% binding of tracer labeled ligand to receptor protein was calculated using the software provided by the vendor.
Figure 3: FIG. 3: Binding of TKPPR (SEQ ID NO: 2) derivatives with NP-1/Fc by Fluorescence Polarization. The indicated Oregon Green-labeled derivatives were incubated with increasing concentrations of NP-1 and polarization was measured. […] Figure 4: FIG. 4: Binding of TKPPR (SEQ ID NO: 2) derivatives with KDR-Fc by FP.

T1 sequence (Q9QWJ9 22-855): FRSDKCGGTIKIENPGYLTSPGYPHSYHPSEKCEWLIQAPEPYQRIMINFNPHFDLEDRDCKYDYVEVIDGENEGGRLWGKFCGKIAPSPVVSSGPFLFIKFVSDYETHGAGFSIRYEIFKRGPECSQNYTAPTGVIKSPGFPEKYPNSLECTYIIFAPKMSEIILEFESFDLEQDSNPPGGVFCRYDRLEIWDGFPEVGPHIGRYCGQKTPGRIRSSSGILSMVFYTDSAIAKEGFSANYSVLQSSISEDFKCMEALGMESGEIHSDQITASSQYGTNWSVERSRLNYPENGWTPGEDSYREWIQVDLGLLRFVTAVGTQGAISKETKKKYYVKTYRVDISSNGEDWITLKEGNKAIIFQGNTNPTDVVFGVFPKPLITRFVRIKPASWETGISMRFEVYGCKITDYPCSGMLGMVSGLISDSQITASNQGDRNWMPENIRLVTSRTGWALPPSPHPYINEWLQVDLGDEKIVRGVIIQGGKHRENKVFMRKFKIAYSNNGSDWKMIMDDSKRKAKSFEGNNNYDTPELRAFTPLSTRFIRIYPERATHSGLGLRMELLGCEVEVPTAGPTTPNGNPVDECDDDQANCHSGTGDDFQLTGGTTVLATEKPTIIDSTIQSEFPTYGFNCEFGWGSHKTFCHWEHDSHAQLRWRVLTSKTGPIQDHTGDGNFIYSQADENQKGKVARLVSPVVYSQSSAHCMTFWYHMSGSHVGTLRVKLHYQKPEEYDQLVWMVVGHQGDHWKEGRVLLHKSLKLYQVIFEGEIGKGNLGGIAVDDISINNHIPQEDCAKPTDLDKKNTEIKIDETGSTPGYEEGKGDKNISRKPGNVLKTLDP

B1: VEGF165 (ligand, UniProt P15692-4 27-191, looked up)
chain: APMAEGGGQNHHEVVKFMDVYQRSYCHPIETLVDIFQEYPDEIEYIFKPSCVPLMRCGGCCNDEGLECVPTEESNITMQIMRIKPHQGQHIGEMSFLQHNKCECRPKKDRARQENPCGPCSERRKHLFVQDPQTCKCSCKNTDSRCKARQLELNERTCRCDKPRR
modifications: 125I label on the radioligand form
notes: Labelled and unlabelled forms and the different suppliers are kept as one molecule; also called unlabeled VEGF165
An IC50 [1] of 0.0005 µM and an IC50 [2] of 0.2 µM were found for B1 in this work.

B2: TKPPR tetramer BRU-326, OG-(TKPPR)4 (peptide)
peptide: TKPPR-OH
modifications: not fully specified (N-terminus); printed as OG-(TKPPR)4; also: tetramer: four TKPPR chains joined via branched tetra-acid scaffold
notes: free C-terminal Arg on each arm; also called tetrameric TKPPR
An IC50 [1] of 0.13 µM and a Kd [3] of 0.025 to 0.05 µM were found for B2 in this work.

B3: TKPPR dimer BRU-317, OG-(TKPPR)2 (peptide)
peptide: TKPPR
modifications: not fully specified (N-terminus); printed as OG-(TKPPR)2; also: dimer on branched scaffold with one Oregon Green label
An IC50 [1] of 3 µM was found for B3 in this work.

An IC50 [1] of 30 µM was found for {Oregon Green (5-isomer)}-GTKPPR-OH (also called OG-TKPPR; OG-TKPPR monomer) [BRU-239, Oregon Green (5-isomer)-GTKPPR-OH] in this work.

An IC50 [1] of 43 µM and an IC50 [2] of 80 µM were found for TKPPR-OH (also called BRU-95; TKPPR-OH) [TKPPR (L-threonyl-L-lysyl-L-prolyl-L-prolyl-L-arginine), free monomeric peptide] in this work.
